From paper PMC9536601, “Binding of adenovirus species C hexon to prothrombin and the influence of hexon on vector properties in vitro and in vivo” (PLoS Pathogens, 2022)

Assays:
Conditions in all cases: both partners purified
[1] = target: T1, hexon of wild-type human adenovirus type 2 (on virions) (human adenovirus 2, UniProt P03277 1-968); experiment: SPR; Biacore T200; about 300 to 5,000 RU of Ad virions immobilised on a CM5 chip, coagulation factors flowed over at four concentrations, 50 uL/min; running buffer 10 mM HEPES, 150 mM NaCl, 1 mM CaCl2, 0.5 mM MgCl2, 0.1% BSA, 0.05% polysorbate 20, pH 7.4; regeneration with 3 mM EDTA; global fit to a 1:1 kinetic interaction model, double referencing
T1 construct: hexon of human adenovirus type 2 (species C), whole hexon as it stands in the capsid of the virion; Immobilised as whole virions; also called Ad2; source: wild-type virus from ATCC, grown on 293 cells, virions purified by CsCl ultracentrifugation

[2] = target: T2, hexon of wild-type human adenovirus type 5 (on virions) (human adenovirus 5, UniProt P04133 2-952); experiment: as above
T2 construct: hexon of human adenovirus type 5 (species C), whole hexon as it stands in the capsid of the virion; Immobilised as whole virions; also called Ad5; source: wild-type virus from ATCC, grown on 293 cells, virions purified by CsCl ultracentrifugation

[3] = target: T3, hexon of the E1/E3-deleted Ad5 vector Ad5.0 (wild-type Ad5 capsid, on virions) (human adenovirus 5, UniProt P04133 2-952); experiment: as above
T3 construct: hexon of human adenovirus type 5, unchanged, as it stands in the capsid of the vector; Immobilised as whole vector virions; source: E1/E3-deleted Ad5 vector grown on 293 cells, virions purified by CsCl ultracentrifugation

[4] = target: T4, human prothrombin (coagulation factor II) (human, UniProt P00734 44-622, γ-carboxylated glutamate residues in the Gla domain (positions not given)); experiment: SPR; Biacore T200; about 300 to 5,000 RU of Ad virions immobilised on a CM5 chip, coagulation factors flowed over at four concentrations, 50 uL/min; 10 mM HEPES, 150 mM NaCl, 1 mM CaCl2, 0.5 mM MgCl2, 0.1% BSA, 0.05% polysorbate 20, pH 7.4; global fit to a 1:1 kinetic interaction model, double referencing
T4 construct: prothrombin (FII), human, plasma-derived; also called Human FII; FII; source: bought: Haematologic Technologies, Inc. (HCP-0010), plasma-derived; dialyzed

Binder | koff [1] [s⁻¹] | kon [1] [M⁻¹ s⁻¹] | koff [2] [s⁻¹] | kon [2] [M⁻¹ s⁻¹] | Kd [3] [nM] | koff [3] [s⁻¹] | kon [3] [M⁻¹ s⁻¹] | Kd [4] [nM] | Kd [1] [nM] | Kd [2] [nM]
mouse coagulation factor X (natural protein, gamma-carboxylated glutamate residues in the Gla domain, coagulation factor X, mouse, plasma-derived; Pretreated with 125 uM GGACK (EGRCK); written here as one entry; also called mouse FX; source: bought: Haematologic Technologies, Inc. (MCX-5050), plasma-derived) ANSFFEEFKKGNLERECMEEICSYEEVREIFEDDEKTKEYWTKYKDGDQCESSPCQNQGACRDGIGGYTCTCSEGFEGKNCELFVRKLCRLDNGDCDQFCREEQNSVVCSCASGYFLGNDGKSCISTAPFPCGKITTGRRKRSVALNTSDSELDLEDALLDEDFLSPTENPIELLNLNETQPERSSDDLVRIVGGRECKDGECPWQALLINEDNEGFCGGTILNEFYILTAAHCLHQARRFKVRVGDRNTEKEEGNEMVHEVDVVIKHNKFQRDTYDYDIAVLRLKTPITFRMNVAPACLPQKDWAESTLMTQKTGIVSGFGRTHEKGRQSNILKMLEVPYVDRNTCKLSTSFSITQNMFCAGYEAKLEDACQGDSGGPHVTRFKNTYYVTGIVSWGEGCARKGKYGIYTKVTTFLKWIDRSMKARVGPTAETPRTAGPPN | 0.00018 | 238000 | 8.4e-05 | 242000 | 0.32 | 8.61e-05 | 266000 | – | – | –
hexon of Ad5.5 (Ad5 vector, hexon HVR7 VINTDTL), on the virion (natural protein, human adenovirus type 5, hexon of human adenovirus type 5, whole as in the capsid of the virion; HVR7 segment changed; The whole virion was immobilised; source: 293 cells, virions purified by CsCl ultracentrifugation) ATPSMMPQWSYMHISGQDASEYLSPGLVQFARATETYFSLNNKFRNPTVAPTHDVTTDRSQRLTLRFIPVDREDTAYSYKARFTLAVGDNRVLDMASTYFDIRGVLDRGPTFKPYSGTAYNALAPKGAPNPCEWDEAATALEINLEEEDDDNEDEVDEQAEQQKTHVFGQAPYSGINITKEGIQIGVEGQTPKYADKTFQPEPQIGESQWYETEINHAAGRVLKKTTPMKPCYGSYAKPTNENGGQGILVKQQNGKLESQVEMQFFSTTEATAGNGDNLTPKVVLYSEDVDIETPDTHISYMPTIKEGNSRELMGQQSMPNRPNYIAFRDNFIGLMYYNSTGNMGVLAGQASQLNAVVDLQDRNTELSYQLLLDSIGDRTRYFSMWNQAVDSYDPDVRIIENHGTEDELPNYCFPLGGVINTDTLTKVKPKTGQENGWEKDATEFSDKNEIRVGNNFAMEINLNANLWRNFLYSNIALYLPDKLKYSPSNVKISDNPNTYDYMNKRVVAPGLVDCYINLGARWSLDYMDNVNPFNHHRNAGLRYRSMLLGNGRYVPFHIQVPQKFFAIKNLLLLPGSYTYEWNFRKDVNMVLQSSLGNDLRVDGASIKFDSICLYATFFPMAHNTASTLEAMLRNDTNDQSFNDYLSAANMLYPIPANATNVPISIPSRNWAAFRGWAFTRLKTKETPSLGSGYDPYYTYSGSIPYLDGTFYLNHTFKKVAITFDSSVSWPGNDRLLTPNEFEIKRSVDGEGYNVAQCNMTKDWFLVQMLANYNIGYQGFYIPESYKDRMYSFFRNFQPMSRQVVDDTKYKDYQQVGILHQHNNSGFVGYLAPTMREGQAYPANFPYPLIGKTAVDSITQKKFLCDRTLWRIPFSSNFMSMGALTDLGQNLLYANSAHALDMTFEVDPMDEPTLLYVLFEVFDVVRVHRPHRGVIETVYLRTPFSAGNATT | – | – | – | – | – | – | – | 233 | – | –
hexon of Ad5.6 (Ad5 vector, hexon HVR7 VIRTDTL), on the virion (natural protein, human adenovirus type 5, hexon of human adenovirus type 5, whole as in the capsid of the virion; HVR7 segment changed; The whole virion was immobilised; source: 293 cells, virions purified by CsCl ultracentrifugation) ATPSMMPQWSYMHISGQDASEYLSPGLVQFARATETYFSLNNKFRNPTVAPTHDVTTDRSQRLTLRFIPVDREDTAYSYKARFTLAVGDNRVLDMASTYFDIRGVLDRGPTFKPYSGTAYNALAPKGAPNPCEWDEAATALEINLEEEDDDNEDEVDEQAEQQKTHVFGQAPYSGINITKEGIQIGVEGQTPKYADKTFQPEPQIGESQWYETEINHAAGRVLKKTTPMKPCYGSYAKPTNENGGQGILVKQQNGKLESQVEMQFFSTTEATAGNGDNLTPKVVLYSEDVDIETPDTHISYMPTIKEGNSRELMGQQSMPNRPNYIAFRDNFIGLMYYNSTGNMGVLAGQASQLNAVVDLQDRNTELSYQLLLDSIGDRTRYFSMWNQAVDSYDPDVRIIENHGTEDELPNYCFPLGGVIRTDTLTKVKPKTGQENGWEKDATEFSDKNEIRVGNNFAMEINLNANLWRNFLYSNIALYLPDKLKYSPSNVKISDNPNTYDYMNKRVVAPGLVDCYINLGARWSLDYMDNVNPFNHHRNAGLRYRSMLLGNGRYVPFHIQVPQKFFAIKNLLLLPGSYTYEWNFRKDVNMVLQSSLGNDLRVDGASIKFDSICLYATFFPMAHNTASTLEAMLRNDTNDQSFNDYLSAANMLYPIPANATNVPISIPSRNWAAFRGWAFTRLKTKETPSLGSGYDPYYTYSGSIPYLDGTFYLNHTFKKVAITFDSSVSWPGNDRLLTPNEFEIKRSVDGEGYNVAQCNMTKDWFLVQMLANYNIGYQGFYIPESYKDRMYSFFRNFQPMSRQVVDDTKYKDYQQVGILHQHNNSGFVGYLAPTMREGQAYPANFPYPLIGKTAVDSITQKKFLCDRTLWRIPFSSNFMSMGALTDLGQNLLYANSAHALDMTFEVDPMDEPTLLYVLFEVFDVVRVHRPHRGVIETVYLRTPFSAGNATT | – | – | – | – | – | – | – | 130 | – | –
hexon of Ad5.0 (E1/E3-deleted Ad5 vector with wild-type Ad5 capsid), on the virion (natural protein, human adenovirus type 5, hexon of human adenovirus type 5, whole as in the capsid of the virion; HVR7 segment VINTETL; The whole virion was immobilised; The other capsid proteins are not written; also called VINTETL; source: 293 cells, virions purified by CsCl ultracentrifugation) ATPSMMPQWSYMHISGQDASEYLSPGLVQFARATETYFSLNNKFRNPTVAPTHDVTTDRSQRLTLRFIPVDREDTAYSYKARFTLAVGDNRVLDMASTYFDIRGVLDRGPTFKPYSGTAYNALAPKGAPNPCEWDEAATALEINLEEEDDDNEDEVDEQAEQQKTHVFGQAPYSGINITKEGIQIGVEGQTPKYADKTFQPEPQIGESQWYETEINHAAGRVLKKTTPMKPCYGSYAKPTNENGGQGILVKQQNGKLESQVEMQFFSTTEATAGNGDNLTPKVVLYSEDVDIETPDTHISYMPTIKEGNSRELMGQQSMPNRPNYIAFRDNFIGLMYYNSTGNMGVLAGQASQLNAVVDLQDRNTELSYQLLLDSIGDRTRYFSMWNQAVDSYDPDVRIIENHGTEDELPNYCFPLGGVINTETLTKVKPKTGQENGWEKDATEFSDKNEIRVGNNFAMEINLNANLWRNFLYSNIALYLPDKLKYSPSNVKISDNPNTYDYMNKRVVAPGLVDCYINLGARWSLDYMDNVNPFNHHRNAGLRYRSMLLGNGRYVPFHIQVPQKFFAIKNLLLLPGSYTYEWNFRKDVNMVLQSSLGNDLRVDGASIKFDSICLYATFFPMAHNTASTLEAMLRNDTNDQSFNDYLSAANMLYPIPANATNVPISIPSRNWAAFRGWAFTRLKTKETPSLGSGYDPYYTYSGSIPYLDGTFYLNHTFKKVAITFDSSVSWPGNDRLLTPNEFEIKRSVDGEGYNVAQCNMTKDWFLVQMLANYNIGYQGFYIPESYKDRMYSFFRNFQPMSRQVVDDTKYKDYQQVGILHQHNNSGFVGYLAPTMREGQAYPANFPYPLIGKTAVDSITQKKFLCDRTLWRIPFSSNFMSMGALTDLGQNLLYANSAHALDMTFEVDPMDEPTLLYVLFEVFDVVRVHRPHRGVIETVYLRTPFSAGNATT | – | – | – | – | – | – | – | 35 | – | –
mouse prothrombin (coagulation factor II) (natural protein, gamma-carboxylated glutamate residues in the Gla domain, prothrombin (FII), mouse, plasma-derived; also called mouse FII) not shown | 0.000393 | 69700 | 0.0518 | 24500 | 2000 | 0.0361 | 18000 | – | 5.6 | 2100
bovine coagulation factor X (natural protein, gamma-carboxylated glutamate residues in the Gla domain, coagulation factor X, bovine, plasma-derived; Pretreated with 125 uM GGACK (EGRCK); written here as one entry; also called bovine FX; source: bought: Haematologic Technologies, Inc. (BCX-1050), plasma-derived) ANSFLEEVKQGNLERECLEEACSLEEAREVFEDAEQTDEFWSKYKDGDQCEGHPCLNQGHCKDGIGDYTCTCAEGFEGKNCEFSTREICSLDNGGCDQFCREERSEVRCSCAHGYVLGDDSKSCVSTERFPCGKFTQGRSRRWAIHTSEDALDASELEHYDPADLSPTESSLDLLGLNRTEPSAGEDGSQVVRIVGGRDCAEGECPWQALLVNEENEGFCGGTILNEFYVLTAAHCLHQAKRFTVRVGDRNTEQEEGNEMAHEVEMTVKHSRFVKETYDFDIAVLRLKTPIRFRRNVAPACLPEKDWAEATLMTQKTGIVSGFGRTHEKGRLSSTLKMLEVPYVDRSTCKLSSSFTITPNMFCAGYDTQPEDACQGDSGGPHVTRFKDTYFVTGIVSWGEGCARKGKFGVYTKVSNFLKWIDKIMKARAGAAGSRGHSEAPATWTVPPPLPL | 0.0142 | 194000 | 0.115 | 410000 | 270 | 0.0711 | 262000 | – | – | 280
